Measured values reported in publication PMC5861037.

Columns and labels:
[1] = biological target: DosR K182Q K182Q (Mycobacterium tuberculosis H37Rv) (UniProt P9WMF9); assay: EMSA
[2] = biological target: DosR K182R K182R (Mycobacterium tuberculosis H37Rv) (UniProt P9WMF9); assay: EMSA

TTGATGCCTCCTAATCGATGGAAACGGATGCCTTTGATCCGACCAGCCCATCGTGGCCAGGGCTAGGGACAGAAGTCCCCGAAGCGCGGGCCATTTGTCCGCGCCCGTCGGTGATCCACTTGGGGACCATTGACCCTGTTGTCTGCCA (double strand) [acr promoter fragment]
binding [1]: binds more weakly | binding [2]: binds
